Biological target: HLA-A*02:01/NY-ESO-1 (modified, …) peptide-MHC on peptide-loaded T2 cells (human)
Assay: cell-based or functional assay

EC50[nM] of MAGE-A3 peptide for activator C563 in Jurkat NFAT-luciferase cells co-expressing this inhibitor; T2 cells with 50 uM NY-ESO-1 peptide: > 10000 nM
Substance: C2057 + C2058 (TCR 1G4:α95LY alpha ECD and beta ECD, each fused to LILRB1 TM and ICD)
